The record followed here is paper PMC6555819, “Comprehensive study of nuclear receptor DNA binding provides a revised framework for understanding receptor specificity”.

First the molecules themselves.
B1: NRC3_wobSeed15_DR0_G10T_o1 (dsDNA)
DNA 1: GCCGAACTATGTCAAGGACAGTGAATCTCCGCACGCGCGATTGACAGCGTAGAATGAAGG
DNA 2: CCTTCATTCTACGCTGTCAATCGCGCGTGCGGAGATTCACTGTCCTTGACATAGTTCGGC
B2: NRC3_random_hg19_167_o1 (dsDNA)
DNA 1: GCTTTGAAGACACTGAAGGAGTGAGCCATTTGGATCGCGATTGACAGCGTAGAATGAAGG
DNA 2: CCTTCATTCTACGCTGTCAATCGCGATCCAAATGGCTCACTCCTTCAGTGTCTTCAAAGC
B3: NRC3_wobSeed82_DR3_C13G_o1 (dsDNA)
DNA 1: GCATCGAAAGGTGGACGAGGTGAGTATACACCGTTTGCGATTGACAGCGTAGAATGAAGG
DNA 2: CCTTCATTCTACGCTGTCAATCGCAAACGGTGTATACTCACCTCGTCCACCTTTCGATGC
B4: NRC3_wobSeed4_DR0_G16T_o1 (dsDNA)
DNA 1: GCCCTACTGGGCCAATGTCATTGATCAGTCAAAGCAGCGATTGACAGCGTAGAATGAAGG
DNA 2: CCTTCATTCTACGCTGTCAATCGCTGCTTTGACTGATCAATGACATTGGCCCAGTAGGGC
B5: NRC3_wobSeed38_DR1_G11T_o1 (dsDNA)
DNA 1: GCCCTGCTAGTTCAATGGTCAGCTAAAGCAGCTCGCGCGATTGACAGCGTAGAATGAAGG
DNA 2: CCTTCATTCTACGCTGTCAATCGCGCGAGCTGCTTTAGCTGACCATTGAACTAGCAGGGC
B6: NRC3_wobSeed38_DR1_A9C_o1 (dsDNA)
DNA 1: GCCCTGCTCGGTCAATGGTCAGCTAAAGCAGCTCGCGCGATTGACAGCGTAGAATGAAGG
DNA 2: CCTTCATTCTACGCTGTCAATCGCGCGAGCTGCTTTAGCTGACCATTGACCGAGCAGGGC
B7: NRC3_wobSeed48_DR1_G5T_o1 (dsDNA)
DNA 1: GCCCTAGTAGGTTATGGGGCATTCAGGCAACGGTGAGCGATTGACAGCGTAGAATGAAGG
DNA 2: CCTTCATTCTACGCTGTCAATCGCTCACCGTTGCCTGAATGCCCCATAACCTACTAGGGC
B8: NRC3_wobSeed50_DR2_A17T_o1 (dsDNA)
DNA 1: GCCCTAGTTGGTCAGGTGGTCACACACCGGATATGAGCGATTGACAGCGTAGAATGAAGG
DNA 2: CCTTCATTCTACGCTGTCAATCGCTCATATCCGGTGTGTGACCACCTGACCAACTAGGGC
B9: NRC3_wobSeed47_DR1_G11C_o1 (dsDNA)
DNA 1: GCGGAACGAGCGCAAAGTTGATAGCATCTGTCGACGGCGATTGACAGCGTAGAATGAAGG
DNA 2: CCTTCATTCTACGCTGTCAATCGCCGTCGACAGATGCTATCAACTTTGCGCTCGTTCCGC
B10: NRC3_wobSeed2_DR0_A20T_o1 (dsDNA)
DNA 1: GCCCTAGTTGGTCAAGGTCTCACACGCTATAGGTACGCGATTGACAGCGTAGAATGAAGG
DNA 2: CCTTCATTCTACGCTGTCAATCGCGTACCTATAGCGTGTGAGACCTTGACCAACTAGGGC
B11: NRC3_wobSeed61_DR2_G11C_o1 (dsDNA)
DNA 1: GCCGTCCAAGCTCAGCAGGTCAGTGAAAGCGACGTGGCGATTGACAGCGTAGAATGAAGG
DNA 2: CCTTCATTCTACGCTGTCAATCGCCACGTCGCTTTCACTGACCTGCTGAGCTTGGACGGC
B12: NRC3_wobSeed90_DR3_C13A_o1 (dsDNA)
DNA 1: GCCATACAGGGTAAGCTAGGCCAGAGTAGGGACGGCGCGATTGACAGCGTAGAATGAAGG
DNA 2: CCTTCATTCTACGCTGTCAATCGCGCCGTCCCTACTCTGGCCTAGCTTACCCTGTATGGC
B13: NRC3_wobSeed134_DR5_A14G_o1 (dsDNA)
DNA 1: GCGCTGCTAGGTCGACTGATGGTCAGCTAAAGCTCGGCGATTGACAGCGTAGAATGAAGG
DNA 2: CCTTCATTCTACGCTGTCAATCGCCGAGCTTTAGCTGACCATCAGTCGACCTAGCAGCGC
B14: NRC3_wobSeed42_DR1_A14T_o1 (dsDNA)
DNA 1: GCTATACAGGGTCTAAGGCCAGAGTACGAATGTCGAGCGATTGACAGCGTAGAATGAAGG
DNA 2: CCTTCATTCTACGCTGTCAATCGCTCGACATTCGTACTCTGGCCTTAGACCCTGTATAGC
B15: NRC3_wobSeed122_DR5_A20T_o1 (dsDNA)
DNA 1: GCGCTAGTTGGTCAGTAAATGGTCACACACCGGTCGGCGATTGACAGCGTAGAATGAAGG
DNA 2: CCTTCATTCTACGCTGTCAATCGCCGACCGGTGTGTGACCATTTACTGACCAACTAGCGC
B16: NRC3_wobSeed141_DR5_T5A_o1 (dsDNA)
DNA 1: GCAGACAAAGTTCAGGACGAGGTAACGTAAAGCACGGCGATTGACAGCGTAGAATGAAGG
DNA 2: CCTTCATTCTACGCTGTCAATCGCCGTGCTTTACGTTACCTCGTCCTGAACTTTGTCTGC
B17: NRC3_random_hg19_303_o1 (dsDNA)
DNA 1: GCAAGATCTCTACAATGAATTGTACCAATGCTCCAGGCGATTGACAGCGTAGAATGAAGG
DNA 2: CCTTCATTCTACGCTGTCAATCGCCTGGAGCATTGGTACAATTCATTGTAGAGATCTTGC
B18: NRC3_wobSeed133_DR5_A14C_o1 (dsDNA)
DNA 1: GCCGTCCAAGGTCCATGCTAGGTCAGTGAAAGCATTGCGATTGACAGCGTAGAATGAAGG
DNA 2: CCTTCATTCTACGCTGTCAATCGCAATGCTTTCACTGACCTAGCATGGACCTTGGACGGC
B19: NRC3_wobSeed101_DR4_A14T_o1 (dsDNA)
DNA 1: GCCCTTACGGGTCTCTCCAGGTTATAGCATCGGAGTGCGATTGACAGCGTAGAATGAAGG
DNA 2: CCTTCATTCTACGCTGTCAATCGCACTCCGATGCTATAACCTGGAGAGACCCGTAAGGGC
B20: NRC3_wobSeed64_DR2_A9C_o1 (dsDNA)
DNA 1: GCTAGCCTCGGTCATTGGGCCAGTATAGTACGCATCGCGATTGACAGCGTAGAATGAAGG
DNA 2: CCTTCATTCTACGCTGTCAATCGCGATGCGTACTATACTGGCCCAATGACCGAGGCTAGC
B21: NRC3_wobSeed99_DR4_A24T_o1 (dsDNA)
DNA 1: GCTCTCGGAGGACACGAAAGGTCTGAGCTCGACATCGCGATTGACAGCGTAGAATGAAGG
DNA 2: CCTTCATTCTACGCTGTCAATCGCGATGTCGAGCTCAGACCTTTCGTGTCCTCCGAGAGC
B22: NRC3_wobSeed99_DR4_G20A_o1 (dsDNA)
DNA 1: GCTCTCGGAGGACACGAAAAGTCAGAGCTCGACATCGCGATTGACAGCGTAGAATGAAGG
DNA 2: CCTTCATTCTACGCTGTCAATCGCGATGTCGAGCTCTGACTTTTCGTGTCCTCCGAGAGC
B23: NRC3_wobSeed14_DR0_G11T_o1 (dsDNA)
DNA 1: GCCCTGCTAGTTCATGGTCAGCTAATCTACAGTATGGCGATTGACAGCGTAGAATGAAGG
DNA 2: CCTTCATTCTACGCTGTCAATCGCCATACTGTAGATTAGCTGACCATGAACTAGCAGGGC
B24: NRC3_wobSeed44_DR1_A14T_o1 (dsDNA)
DNA 1: GCTGAATGAGGTTTAAGATCAGGGAACGTGGCGTCGGCGATTGACAGCGTAGAATGAAGG
DNA 2: CCTTCATTCTACGCTGTCAATCGCCGACGCCACGTTCCCTGATCTTAAACCTCATTCAGC
B25: NRC3_random_hg19_239_o1 (dsDNA)
DNA 1: GCATACATAAGGTGATTTGGCTACATGTATAGACAGGCGATTGACAGCGTAGAATGAAGG
DNA 2: CCTTCATTCTACGCTGTCAATCGCCTGTCTATACATGTAGCCAAATCACCTTATGTATGC
B26: NRC3_random_hg19_367_o1 (dsDNA)
DNA 1: GCATCTGTGTAACCAGCACCACAGTTAAGATACAGAGCGATTGACAGCGTAGAATGAAGG
DNA 2: CCTTCATTCTACGCTGTCAATCGCTCTGTATCTTAACTGTGGTGCTGGTTACACAGATGC
B27: NRC3_random_hg19_44_o1 (dsDNA)
DNA 1: GCATTTGAGATCTCAGTTTCTGCATACTGAATCACCGCGATTGACAGCGTAGAATGAAGG
DNA 2: CCTTCATTCTACGCTGTCAATCGCGGTGATTCAGTATGCAGAAACTGAGATCTCAAATGC
B28: NRC3_wobSeed102_DR4_G11A_o1 (dsDNA)
DNA 1: GCCCTAGCAGACCAATCTGGGTCACTCAAGGCTTGAGCGATTGACAGCGTAGAATGAAGG
DNA 2: CCTTCATTCTACGCTGTCAATCGCTCAAGCCTTGAGTGACCCAGATTGGTCTGCTAGGGC
B29: NRC3_wobSeed6_DR0_G15C_o1 (dsDNA)
DNA 1: GCCCTAGCAGGCCACGGTCACTCAAGCATTTCGCTTGCGATTGACAGCGTAGAATGAAGG
DNA 2: CCTTCATTCTACGCTGTCAATCGCAAGCGAAATGCTTGAGTGACCGTGGCCTGCTAGGGC
B30: NRC3_random_hg19_221_o1 (dsDNA)
DNA 1: GCCTTGAATCCAGGAGGCAGAGGCTGCAGTGAGCTGGCGATTGACAGCGTAGAATGAAGG
DNA 2: CCTTCATTCTACGCTGTCAATCGCCAGCTCACTGCAGCCTCTGCCTCCTGGATTCAAGGC
B31: NRC3_wobSeed40_DR1_G10A_o1 (dsDNA)
DNA 1: GCTAGCCTAAGTCATGGGCCAGTATACCACGCGAACGCGATTGACAGCGTAGAATGAAGG
DNA 2: CCTTCATTCTACGCTGTCAATCGCGTTCGCGTGGTATACTGGCCCATGACTTAGGCTAGC

Sequence of PPARa:RXRa (Q07869 whole entry, chain 1 of 2): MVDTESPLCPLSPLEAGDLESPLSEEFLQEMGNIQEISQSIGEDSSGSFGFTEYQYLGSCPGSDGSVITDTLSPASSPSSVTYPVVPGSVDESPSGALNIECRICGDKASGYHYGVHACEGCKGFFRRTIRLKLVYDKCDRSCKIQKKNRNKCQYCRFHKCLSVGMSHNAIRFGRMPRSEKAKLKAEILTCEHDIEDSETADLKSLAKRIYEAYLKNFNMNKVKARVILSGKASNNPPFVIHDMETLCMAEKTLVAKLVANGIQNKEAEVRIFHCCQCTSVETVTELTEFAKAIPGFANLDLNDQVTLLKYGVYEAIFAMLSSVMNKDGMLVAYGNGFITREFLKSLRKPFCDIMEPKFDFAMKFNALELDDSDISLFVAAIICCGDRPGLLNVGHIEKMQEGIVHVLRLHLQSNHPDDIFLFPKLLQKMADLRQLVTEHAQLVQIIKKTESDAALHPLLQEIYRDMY
Sequence of PPARa:RXRa (P19793 whole entry, chain 2 of 2): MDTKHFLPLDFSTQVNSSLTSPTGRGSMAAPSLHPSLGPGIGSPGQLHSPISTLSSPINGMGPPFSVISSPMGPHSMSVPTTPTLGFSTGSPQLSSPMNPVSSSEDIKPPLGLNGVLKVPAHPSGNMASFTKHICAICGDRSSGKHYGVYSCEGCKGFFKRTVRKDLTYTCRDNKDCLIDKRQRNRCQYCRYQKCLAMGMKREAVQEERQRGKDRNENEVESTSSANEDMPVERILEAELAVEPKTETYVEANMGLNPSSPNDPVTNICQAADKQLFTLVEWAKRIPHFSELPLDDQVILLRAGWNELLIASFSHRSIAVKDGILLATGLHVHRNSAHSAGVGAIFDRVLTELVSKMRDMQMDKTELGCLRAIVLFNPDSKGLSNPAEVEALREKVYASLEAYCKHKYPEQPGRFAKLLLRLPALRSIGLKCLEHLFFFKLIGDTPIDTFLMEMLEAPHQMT

The data set addresses PPARa:RXRa (Homo sapiens, UniProt Q07869;P19793 full;full). Kind of data set: no ligand; PBM; 270 nM : 90 nM RXRa; PBS pH 7.4, 2% milk, 0.02% Triton X-100, 1 mM DTT, BSA, 0.4 mg/ml salmon testes DNA. To be noted: tags: GST kept;His cleaved; copies: 1;1; label: surface-attached array probe. The procedure, abridged:
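Ligand-free nuclear receptor dimers were bound for 1 h to custom Agilent 4×180K protein-binding microarrays. Detection used antibodies against each partner (one per run). Binding z-scores rest on regression-normalized fluorescence, with random background probes as the reference.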
For B1, the binding signal was 0.36 PBM z-score against 500 random probes. The result for B2 reads -0.13 PBM z-score against 500 random probes; that for B3, 0.49 PBM z-score against 500 random probes. The result for B4 reads 0.47 PBM z-score against 500 random probes. The result for B5 reads 0.22 PBM z-score against 500 random probes; that for B6, 0.02 PBM z-score against 500 random probes; that for B7, 3.05 PBM z-score against 500 random probes. As for B8, the binding signal is 0.4 PBM z-score against 500 random probes. The value for B9 was 0.32 PBM z-score against 500 random probes.

With B10, the binding signal was 0.37 PBM z-score against 500 random probes. Consider B11, for which the binding signal was 0.35 PBM z-score against 500 random probes.

Take B12: the binding signal was -0.35 PBM z-score against 500 random probes.

Take B13: the binding signal was 0.01 PBM z-score against 500 random probes.

As to B14, the binding signal is 0.39 PBM z-score against 500 random probes. Turning to B15, the binding signal was 0.26 PBM z-score against 500 random probes. Turning to B16, the binding signal was 3 PBM z-score against 500 random probes.

As to B17, the binding signal was -0.05 PBM z-score against 500 random probes. For B18, the binding signal is 0.33 PBM z-score against 500 random probes. The result for B19 reads 0.07 PBM z-score against 500 random probes; that for B20, 0.15 PBM z-score against 500 random probes.

In the case of B21, the binding signal was 0.43 PBM z-score against 500 random probes. The result for B22 reads 0.36 PBM z-score against 500 random probes. Turning to B23, the binding signal is 0.23 PBM z-score against 500 random probes. The value for B24 was 0.18 PBM z-score against 500 random probes; that for B25 was 0.32 PBM z-score against 500 random probes. For B26, the binding signal was -0.28 PBM z-score against 500 random probes. As for B27, the binding signal is -0.2 PBM z-score against 500 random probes. On to B28, for which the binding signal is 3.03 PBM z-score against 500 random probes. Turning to B29, the binding signal was 0.43 PBM z-score against 500 random probes.

With B30, the binding signal was -0.29 PBM z-score against 500 random probes.

For the molecule B31, the binding signal was -0.06 PBM z-score against 500 random probes.
